According to patent publication US20250381223A1 (UTC THERAPEUTICS SHANGHAI, published 2025):
Changes are numbered by the printed parent chain.

B1: anti-CD123 scFv-C29 (scFv)
scFv: QPVLTQPPSASGTPGQRVTISCSGSSSNIGSNYVYWYQQLPGTAPKLLIYRNNQRPSGVPDRFSGSKSGTSASLAISGLRSEDEADYYCAAWDDSLSGYVFGTGTKVTVLGGGGSGGGGSGGGGSEVHLVESGGGLVQPGRSLRLSCTASGFTFGDYAMSWVRQAPGKGLEWVGFIRSKAYGGTTEYAASVKGRFTISRDDSKSIAYLQMNSLKTEDTAVYYCTRDIGYYGSGSYSPFDYWGQGTLVTVSS
notes: On mRNA-electroporated T cells as CAR
B2: anti-CD123 scFv-C19 (scFv)
scFv: DIRMTQSPSSLSASVGDRVTITCRASQDIRHDLGWYQQKPGKAPSLLMYATSTLQSGVPSRFSGSGSGTHFTLTISSLKPEDSATYYCLQDGDYPLTFGGGTKLEIKGGGGSGGGGSGGGGSQVQLVQSGGGVVQPGRSLRLSCAASGFTFSSYGMHWVRQAPGKGLEWVAVISYDGSNKYYADSVKGRFTISRDNSKNTLYLQMNSLRAEDTAVYYCAKDPSLIQYYYYGMDVWGQGTMVTVSS
notes: as for B1
B3: anti-CD123 scFv-C21 (scFv)
scFv: QSVLTQPPSASGTPGQRVTISCSGSSSNVGGNPVYWYRQVPTAAPKLLVYGHNQRPPRDPDRFSGSKSGTSASLAISGLRSEDEADYYCAAWDDSLSGWVFGGGTELTVLGGGGSGGGGSGGGGSEVQLVESGGGLVQPGRSLRLSCAASGFTFDDYAMHWVRQAPGKGLEWVSGISWNSGSIGYADSVKGRFTISRDNAKNSLYLQMNSLRAEDTALYYCAKGRYVDIVATINDAFDIWGQGTMVTVSS
notes: as for B1
B4: anti-CD123 scFv-C23 (scFv)
scFv: DILMTQSPSSLSASVGDRVTITCQASQDISNYLNWYQQKPGKAPKLLIYDASNLETGVPSRFSGSGSGTGFSFTISSLQPEDFATYYCQQYGNLPLTFGGGTKLEIKGGGGSGGGGSGGGGSQVQLVQSGAEVKKPGASVKVSCKASGYTFTSYGISWVRQAPGQGLEWMGWISAYNGNTNYAQKLQGRVTMTTDTSTSTAYMELRSLRSDDTAVYYCARDRIAAAEVYYYYGMDVWGQGTTVTVSS
notes: as for B1
B5: anti-CD123 scFv-C24 (scFv)
scFv: DIQMTQSPSSLSASVGDRVTITCRASQSISSYLNWYQQKPGKAPKLLIHAASSLQSGVPSKFSGSGSGTDFTLTISSLQPEDFATYYCLQYKTYPYTFGPGTKVEIKGGGGSGGGGSGGGGSQVQLVQSGAEVKKPGSSVKVSCKASGGTFSSYAISWVRQAPGQGLEWMGGIIPIFGTANYAQKFQGRVTITADESTSTAYMELSSLRSEDTAVYYCARDSPSGSTNYYYYYMDVWGKGTTVTVSS
notes: as for B1
B6: anti-CD123 scFv-C26 (scFv)
scFv: QSVLTQPPSASGTPGQRVTISCSGSRSNIGSNTVSWYQQFPGTAPKLLIYLNNQRPSGVPDRFSGSKSGTSASLAISGLQSEDEAEYYCATWDDDLNGVFGGGTKLTVLGGGGSGGGGSGGGGSEVQLVESGGGLVQPGGSLRLSCAASGFTLSNFEMNWVRQAPGRGLEWVSYISATTSATSYADSVKGRFTISRDNAKNSLYLQMNSLRAEDTAVYYCARVRDGYNFGYYYYYMDVWGKGTTVTVSS
notes: as for B1
B7: anti-CD123 scFv-C27 (scFv)
scFv: EIVLTQSPGTVSLSPGERATLSCRASQRVSATYLAWYQQKPGQAPRLLMYGGSRRATGIPDRFSGSGSGTDFTLTIRRLEPEDSAVYYCQQYGSSPLTFGGGTKLEIKGGGGSGGGGSGGGGSQVQLVQSGSELKKPGASVKVSCKASGYTFTSYGISWVRQAPGQGLEWMGWISAYNGNTNYAQKLQGRVTMTTDTSTSTAYMELRSLRSDDTAVYYCARDPYDDYGGNSRDEEDAFDIWGQGTTVTVSS
notes: as for B1
B8: anti-CD123 scFv-C30 (scFv)
scFv: AIRLTQSPSSLSASVGDRVTITCQASQNINNYLNWYQQKSGKAPKLLIYDASNLEAGVPSRFSGSASGTDFTFTISSLQPEDIATYYCQQNDNLPLTFGQGTRLEIKGGGGSGGGGSGGGGSEVQLVESGGGVVRPGGSLRLSCAASGFTFGDYGMSWVRQAPGKGLEWVSGINWNGGSTGYADSVKGRFTISRDNAKNSLYLQMNSLRAEDTALYYCARDRAPDYGDYLQVGTTDYWGQGTLVTVSS
notes: as for B1
B9: anti-CD123 scFv-C32 (scFv)
scFv: QSVVTQPPSASGTPGQRVTISCSGSSSNIEGNTVSWYQQFPGAAPKLLIYSNSYRASGVPDRFSGSKSGTSASLAISELQSEDEADYYCSAWDDSLNGPVFGGGTKVTVLGGGGSGGGGSGGGGSEVQLVESGGGLVQPGGSLRLSCAASGFTFTSYAMNWVRQAPGKGLEWVSDISSSSSYIYYADSVKGRFTISRDNAKNSLYLQMNSLRAEDTAVYYCARDLYSGYDYGYYYGMDVWGQGTTVTVSS
notes: as for B1
B10: anti-CD123 scFv-C33 (scFv)
scFv: DIRLTQSPSSLSASVGDTITITCRASQDISSWIAWYQQKPGTAPRLLIYAASSLQSGVPSRFSGSGSGTDFTLTINSLHPEDFATYYCQQGSTFPLAFGGGTKVEIKGGGGSGGGGSGGGGSQVQLVQSGAEVKKPGSSVKVSCKASGGTFSSYAISWVRQAPGQGLEWMGGIIPIFGTANYAQKFQGRVTITADESTSTAYMELSSLRSEDTAVYYCARGLDNWNDVGWFDPWGQGTLVTVSS
notes: as for B1
B11: anti-CD123 scFv-C34 (scFv)
scFv: QSALTQPPSASGSPGQSVTISCTGTRSDVGAYNYVSWYQHHPGKAPKLMLYDVSKRPSGVSDRFSGSKSGNTASLTVSGLQSEDEANYYCSSYAGSGKYVFGSGTELTVLGGGGSGGGGSGGGGSEVHLVESGGGLVKPGGSLRLSCAASGFTFSDTWMSWVRQAPGKGLEWVGRIKSKTDGGTTNYAAPVKGRFTISRDDSKTTLFLQMNSLKTEDTAVYYCTGGDYPLFAYWGQGALVTVSS
notes: as for B1
B12: huVH3huVL2 (antibody, human IgG1, kappa, V domains shown)
VH: QVQLQESGPGLVKPSETLSLTCTVSGFSLSDYGVHWVRQSPGKGLEWIGVIWAGGGTNYNSALKSRKTISKDNSKSQVSLKLSSVTAADTAVYYCARDKGYSYYYSMDYWGQGTTVTVSS
VL: DIQLTQSPSSLSASVGDRVTITCRASESVEYYVTSLMQWYQQKPGKAPKLLIFAASNVESGVPSRFSGSGSGTNFTLTISSVQPEDFATYFCQQSRKVPYTFGGGTKLEIKR
B13: huVH1huVL1 (antibody, human IgG1, kappa, V domains shown)
VH: B12 VH with Q3K, L20I, I48L, K64M, S79F, L82M, V85L
VL: B12 VL with A13V, T22S, K46Q, P84E, T89M
notes: also called huVH1VL1; 9.3h11
B14: huVH1huVL2 (antibody, human IgG1, kappa, V domains shown)
VH: B12 VH with Q3K, L20I, I48L, K64M, S79F, L82M, V85L
VL: B12 VL
B15: huVH2huVL2 (antibody, human IgG1, kappa, V domains shown)
VH: B12 VH with L20I, S40P, I48L, K64M, N73T, S76N, L82M, V85L
VL: B12 VL

Target: T1, CD123-Fc recombinant protein (human, UniProt P26951 19-305)
T1 construct: construct not described; not shown: Fc part
T1 sequence (looked up): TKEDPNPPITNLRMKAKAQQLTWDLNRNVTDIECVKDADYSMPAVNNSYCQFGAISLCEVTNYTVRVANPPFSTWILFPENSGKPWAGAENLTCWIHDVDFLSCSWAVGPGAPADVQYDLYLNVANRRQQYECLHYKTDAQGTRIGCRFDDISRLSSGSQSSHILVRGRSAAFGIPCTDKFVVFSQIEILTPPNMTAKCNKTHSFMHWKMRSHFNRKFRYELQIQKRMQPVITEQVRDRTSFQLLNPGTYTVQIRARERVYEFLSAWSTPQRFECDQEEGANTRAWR
Experiment: flow cytometry of T cells electroporated with CAR mRNA, stained with CD123-Fc + PE-anti-hIgG-Fc; Mock 0.36
Description: The CD123 CAR mRNAs obtained in Example 35 above were each introduced into T cells by electroporation according to the following procedures: T cells were collected, washed with the Opti-MEM medium, and resuspended at 1×10e⁷/mL with the Opti-MEM medium; 10 μg of RNA and 100 μL of T cells were aliquoted, mixed well, and electroporated under the following parameters (BTX machine): 500 V, 0.7 ms; the cells were then transferred to a pre-warmed medium and cultured at 37° C. The binding of CD123 CART cells to the CD123-Fc recombinant protein was detected by FACS staining. […] Empty vector (Mock) was a control T cell without CAR molecule. A549 tumor cells were electroporated with different amounts of CD123 mRNA. The electroporation procedure was the same as described above, and only the parameters were changed, with the parameters 300 V, 0.5 ms used. CD123 expression in A549 tumor cells was detected by FACS staining of isotype or anti-CD123 antibodies and A549 cells electroporated with different amounts of CD123 mRNA. […] The cytotoxicity of CD123 CART cells against tumor cells was detected in an in vitro cytotoxicity assay. Tumor cells expressing EGFP or EGFP-A549 cells electroporated with different amounts of tumor antigen were seeded at 3000 cells/100 μL/well into a flat-bottom 96-well plate; CART cells were diluted to a proper concentration and seeded to the 100 μL/well tumor cells according to different E/T ratios (e.g., 10:1, 3:1, or 1:1), and the co-culture plate was placed into the IncuCyte S3 machine and scanning parameters were set. After scanning for 3 days, the total green object integrated intensity (GCU×μm²/well) was analyzed to calculate the killing efficiency.

Binder	percent of cells in the CD123-Fc positive gate [%]
B1	21.6
B2	65.4
B3	78.6
B4	81.8
B5	79.5
B6	73.4
B7	47.8
B8	80.7
B9	72.1
B10	58.5
B11	90.3

Target: T2, CD28 (detection antigen of the BLI assay) (human, UniProt P10747 19-152, limits assumed)
T2 construct: also called the antigen
Experiment: BLI (GATOR); antibody loaded at 30 nM, antigen 300-37.5 nM
From the text: The affinity kinetics of the humanized antibodies were detected using biolayer interferometry (BLI). The experimental procedures were as follows: [0533] 1. GATOR instrument was run, and the Kinetics experimental mode was selected. [0534] 2. The analysis program was run according to Table 5

Binder	Kd [nM]	koff [s⁻¹]	kon [M⁻¹ s⁻¹]
B12	9.13	0.000782	85700
B13	6.13	0.000531	86600
B14	6.54	0.000582	89000
B15	6.59	0.000584	88700

Target: T3, recombinant Human/Cynomolgus CD28 (N-6His) (Human/Cynomolgus, UniProt P10747 19-152)
T3 construct: Bought protein; also called antigen CD28; not shown: 6His tag at the N-terminus (N-6His)
Experiment: ELISA; plate coated with CD28 (N-6His) 2 µg/mL; HRP-anti-hFc
Description: The binding activity of the humanized antibody to the antigen CD28 was detected by the ELISA method. The experimental procedures were as follows: [0525] 1. 30 μL of recombinant Human/Cynomolgus CD28 (N-6His) (Suzhou Novoprotein Scientific Inc., C406) at a concentration of 2 μg/mL was added to each well of an ELISA plate, and the plate was incubated at 4° C. overnight. [0526] 2. The next day, the ELISA plate was washed 3 times with PBST (containing 0.05% Tween-20). [0527] 3. 250 μL of 5% skim milk powder (dissolved in PBS) was added to each well of the ELISA plate, and the plate was incubated at room temperature for 2 h. [0528] 4. The plate was washed 3 times with PBST, antibodies with different dilution ratios were added to the ELISA plate at 30 μL/well, and the plate was incubated at room temperature for 60 min. [0529] 5. The plate was washed 3 times with PBST, 30 μL of HRP-anti-hFc antibody was added to each well, and the plate was incubated at room temperature for 60 min. [0530] 6. The plate was washed 3 times with PBST, 30 μL of TMB was added to each well, and after color development at room temperature, 30 μL of 2 M H₂SO₄ was added to each well to stop the reaction. The plate was read at 450 nm.

Binder	EC50 [µg/mL]
B12	0.00914
B13	0.0151
B14	0.0125
B15	0.0126
